Results taken from US20250042994A1 (HAINAN SIMCERE ZAIMING PHARMACEUTICAL, published 2025).

T1: human CD19 exon1-3-His tag protein (human, UniProt P15391 20-186, limits assumed)
T1 construct: membrane-distal part of the extracellular region, made in HEK293E cells; not shown: His tag
T1 sequence (looked up): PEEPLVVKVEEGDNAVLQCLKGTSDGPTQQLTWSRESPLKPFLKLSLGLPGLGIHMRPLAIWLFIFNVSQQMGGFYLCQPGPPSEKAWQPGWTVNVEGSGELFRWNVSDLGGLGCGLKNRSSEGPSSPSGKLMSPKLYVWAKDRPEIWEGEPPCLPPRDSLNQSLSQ

T2: Human CD19-his protein (human, UniProt P15391 20-291)
T2 construct: bought protein; also called recombinant human CD19-His; CD19 full-length protein; not shown: His tag
T2 sequence (looked up): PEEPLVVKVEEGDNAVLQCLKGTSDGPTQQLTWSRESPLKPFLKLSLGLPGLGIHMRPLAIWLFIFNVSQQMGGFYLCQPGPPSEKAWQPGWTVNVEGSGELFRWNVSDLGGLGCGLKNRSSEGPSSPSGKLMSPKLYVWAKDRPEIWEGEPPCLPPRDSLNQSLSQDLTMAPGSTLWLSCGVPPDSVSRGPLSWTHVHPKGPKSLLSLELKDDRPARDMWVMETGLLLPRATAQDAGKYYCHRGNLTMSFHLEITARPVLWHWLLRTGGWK

B1: F3.83.9 (antibody, human IgG1, V domains shown)
VH: DVQLQESGPGLVKPSQSLSLTCSVTGYSITSGYYWNWIRQFPGNKLEWMGYISYDGGNNYNPSLKNRISITRDTSKNQFFLKLNSVTTEDTATYFCAREDYSNWYFDVWGTGTTVTVSS
VL: DIVLTQSPASLAVSLGQRATISCRASQSVSKSSYSYMHWYQQKPGQSPKLLIKYASILKSGVPARFSGSGSGTDFTLNIHPVEEEDTATYYCQHSWEIPWTFGGGTKLEIK
notes: human-murine chimeric antibody, human IgG1 constant
B2: F3.113.16 (antibody, human IgG1, V domains shown)
VH: QVQLQQPGAELVKPGASVKLSCKASGYTFTNYWMQWVKQRPGQGLEWIGEIDPSDSYINYNQKFKGKATLTADTSSSTAYMQLSSLTYEDSAVYYCARPVTVPWYFDVWGTGTTVTVSS
VL: EIVLTQSPTTMAASPGEKITITCSATSSISSNYLHWYQQKPGFSPKLLIYRTSNLASGVPARFSGSGSGTSYSLTIGTMEAEDVATYYCQQGSAIPRIFTFGSGTKLEIK
notes: as for B1
B3: F4.152.7 (antibody, human IgG1, V domains shown)
VH: QVQLQQPGAELVKPGASVKLSCKASGYTFTSYWMHWVKQRPGQGLEWIGEIDPSDSYTNYNQKFKGKATLTADKSSSTAYMQLSGLTSEDSAVYHCARGGDYDGYYVMDYWGQGTSVTVSS
VL: EIVLTQSPTTMAASPGEKITITCSASSSISSNYLHWYQQKPGFSPKLLIYRTSNLASGVPARFSGSGSGTSYSLTIGTMEADDVATYYCQQGSYIPRIFTFGSGTKLEIK
notes: as for B1
B4: F3.64.4 (antibody, human IgG1, V domains shown)
VH: EVQLQQSGPELVKPGASVKISCKASGYTFTDYHINWVKQSHGKSPEWIGDINPNNGGTTYNQKFKDKATLTVDKSSSTAFMELRSLTSEDSAVYYCARFITTVVAWYFDVWGTGTTVTVSS
VL: DIQMTQSPASLSVSVGETVTITCRASENIYSNLAWYQQKQGKSPQLLVYAATNLADGVPSRFSGSGSGTQYSLKINSLQSEDFGNYYCQRFWDTPRTFGGGTKLEIK
notes: as for B1
B5: F4.96.6 (antibody, human IgG1, V domains shown)
VH: EIQLQQSGPELVKPGASVKVSCKASGYAFSAYNIYWVKQSHGKSLEWIGYIDPYNSGTTYNQKFRGKATLTVDKSSNTAYMHLSSLTSEDSAVYYCTRDGDAMDYWGQGTSVTVSS
VL: EILLTQSPAIIAASPGEKVTITCSASSGVIYMNWYQQKPGSSPKIWIYDVSTLASGVPARFSGSGSGTSFSFTINSMEAEDVATYYCQQRSSYPYTFGGGTKLEIK
notes: as for B1
B6: F3.81.2 (antibody, human IgG1, V domains shown)
VH: QVQLQQPGAELVMPGASVKLSCKASAYTFTNYWMHWVKQRPGHGLEWIGEIDPSDSYTDYNQNFKAKATLTVDKSSSTAYMQLSSLTSEDSAVYYCARLMGRYFDVWGTGTTVTVSS
VL: DIVMTQSHKFMSTSVGDRVSITCKASQDVSAAVAWYQQKPGQSPKLLINSASYRYTGVPDRFTGSGSGTDFTFTISSVQAEDLAVYYCQQHYSTPLTFGAGTKLELR
notes: as for B1
B7: F3.126.15 (antibody, human IgG1, V domains shown)
VH: QVQLQQPGAELVMPGASVKLSCKASGYTFTSYWMHWVKQRPGQGLEWIGEIDPSDSYTTYNQNFKGKATLTVDISTSTAYIQLSNLTSEDSAVYYCARLTGNYIHYWGQGTTLTVSS
VL: DIVMTQSHKFMSTSVGDRVSITCKASQDVSPAVAWYQQRPGQCPKLLIFSSSYRSTGVPDRFTGSGSGTDFTFTISSVQAEDLAVYYCQQHYSLPLTFGAGTKLELK
notes: as for B1
B8: F4.107.12 (antibody, human IgG1, V domains shown)
VH: EVQLQQSGPELVKPGASVKMSCKASGYTFTSYVLHWVRQKPGQGLEWIGYFNPYNDGTEYNEKFKGKAILTSDKSSSTAYMELNSLTSEDSAVYYCVGGTYYYGSSYPFAYWGQGTLVTVST
VL: DVVMTQISLSLPVSLGDQASISCRSSQSLIHSNGNTYLQWYLQKPGQSPKLLIYKVSNRLSGVPDRFSGSGSGTDFTLKISRVEAEDLGVYFCSQSTHVPYTFGGGTKLEIK
notes: as for B1
B9: F4.125.12 (antibody, human IgG1, V domains shown)
VH: EVKLVESGGGLVQPGGSLKLSCAASGFTFSTYTMSWVRQTPEKRLEWVAFISSGGGHINYPDTVKGRFTISRDNAKNTLYLQMSSLKSEDTAMYYCARHSYWFFDVWGAGTTVTVSS
VL: DVQITQSPSYLAASPGETITINCRASKNIDTYLAWYQEKPGKTNKLLIYSGSTLQSGIPSRFRGGGSGTDFTLTICSLEPEDFAMYYCQQHNEYPLTFGAGTKLELK
notes: as for B1
B10: F4.191.1 (antibody, human IgG1, V domains shown)
VH: QVQLQQPGAELVRPGASVKLSCKASGYTFTSYWINWVKQRPGQGLEWIGNIHPSDSYTNYNQKFKDKATLTVDKSSSTAYMQFSSPTSEDSAVYYCTREDYYYGSNYDAMDYWGQGTSVTVSS
VL: DIVMTQSHKFMSTSVGDRVNITCKASQDVGSSVAWYQQKPGQSPKLLIYWASTRHAGVPDRFTGSGSGADFTLTISNVQSEDLADYFCQQYSTYPLTFGAGTKLELK
notes: as for B1
B11: F4.145.9 (antibody, human IgG1, V domains shown)
VH: EVQLVESGGGLVKPGGSLKLSCAAAGFAFSSYDMSWVRQIPEKRLEWVAYISAGGGNTYFLDTVKGRFTISRDHAKNTLSLQMSSLKSEDTAMYFCVRHGDYYRYFYAMDYWGQGSSVTVSS
VL: DIVMTQSHKFMSTSVGDRVSITCKASQDVGTAVAWSQQKPGQSPKLLIYWASTRHTGVPDRFTGSGSGTDFTLTISNVQSEDLADYFCQQFVTYPYTFGGGTKLEIK
notes: as for B1
B12: F4.4.6 (antibody, human IgG1, V domains shown)
VH: QVQLQQSGAELARPGASVKLSCKASGYTFTSYWMQWVKQRPGQGLEWIGAIYPGDGDSRYTQKFKGKATLTADKSSSTAYMQLSSLASEDSAVYYCARSTTTVLGNNFEYWGQGTTLTVSS
VL: QIVLTQSPAIMSALPGEKVTMTCSASSSVSSMHWYQQKSGTSPKRWIYDTSKLASGVPARFSGSGSGTSYSLTISSMEAEDAATYYCQQWSSNPWTFGGGTKLEIK
notes: as for B1
B13: F4.180.1 (antibody, human IgG1, V domains shown)
VH: EVQLQQSAPELVKPGASVKMSCKTSGYTFTENIIHWVKQTHGKSLEWIGGINPDNGGTSYHQKFKGRTTLTIDKSSSTAYMELRSLTSDDSAVFFCARQAPLYWYFDIWGAGTTVTVSS
VL: DIVLTQSPASLAVSLGQRATISCRASESVDSYGNSLMHWFQQKPGQPPRLLIYRASNLESGIPARFSGSGSRTDFTLTITPVEADDVATYYCQQSNEDPWTFGGGTKLEIK
notes: as for B1

How the values were obtained:
[1] = target: T1, human CD19 exon1-3-His tag protein; assay: ELISA on coated human CD19 exon 1-3-His
Protocol: Human CD19-his protein (purchased from ACROBiosystems, catalog number: CD9-H52H2) was diluted with PBS to a final concentration of 4 μg/mL, and then added to a 96-well ELISA plate at 100 μl/well. The plate was sealed with a plastic film and incubated overnight at 4° C., the plate was washed 2 times with PBS the next day, and then a blocking solution [PBS+2% (w/w) BSA] was added for blocking at room temperature for 2 h. The blocking solution was poured off, and 100 nM gradiently diluted CD19 chimeric antibody or control antibody was added at 50 μl/well. After incubation at 37° C. for 2 h, the plate was washed 3 times with PBS. […] TMB substrate was added at 50 μl/well, and incubated at room temperature for 10 min, and then a stop solution (1.0 N HCl) was added at 50 μl/well. The OD450 nm values were read by an ELISA microplate reader (Multimode Plate Reader, EnSight, purchased from Perkin Elmer).
CD19 protein contains 4 exons in the extracellular region, in which exons 1-3 are located at the membrane-distal end and exon 4 is located at the membrane-proximal end. […] To identify the distribution of antigen binding epitopes of the chimeric antibodies, human CD19 exon 1-3-His (membrane-distal end) was used to coat at 2 μg/mL according to the ELISA method in example 5.1.

[2] = target: T2, Human CD19-his protein; assay: SPR Biacore, Ab captured on Protein A, CD19-His analyte
Summary of the method: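 Antibodies were captured on a Protein A chip at 25 °C in HBS-EP+. Human CD19-His was injected for 240 s at 30 μl/min at 5 concentrations from 200 nM (1:1 dilutions), with dissociation up to 600 s. Data were double-referenced and fitted to a Langmuir 1:1 model for apparent KD.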

Row | Binder | binding result [1] | Kd [2] [nM] | koff [2] [s⁻¹] | kon [2] [M⁻¹ s⁻¹]
1 | B1 | no binding (tested: 100 nM) | 3.67 | 0.000312 | 85100
2 | B2 | no binding (tested: 100 nM) | 12.4 | 0.00105 | 84800
3 | B3 | no binding (tested: 100 nM) | 0.337 | 8.9e-05 | 264000
4 | B4 | no binding (tested: 100 nM) | 1.64 | 0.000313 | 191000
5 | B5 | no binding (tested: 100 nM) | 3.71 | 0.000918 | 247000
6 | B6 | no binding (tested: 100 nM) | 0.766 | 0.000104 | 135000
7 | B7 | no binding (tested: 100 nM) | 13 | 0.000799 | 61300
8 | B8 | no binding (tested: 100 nM) | 1.09 | 0.000217 | 200000
9 | B9 | no binding (tested: 100 nM) | 0.734 | 0.000204 | 278000
10 | B10 | no binding (tested: 100 nM) | 1.9 | 0.000388 | 205000
11 | B11 | no binding (tested: 100 nM) | 3.68 | 0.000591 | 161000
12 | B12 | no binding (tested: 100 nM) | 9.47 | 0.0019 | 201000
13 | B13 | no binding (tested: 100 nM) | 0.359 | 8.52e-05 | 237000
